Data taken from patent US7078038.

How the values were obtained:
[1] = biological target: wild gp120 fixed to CEM cells CD4+/CXCR4+ (HIV-1 (HXB2 clone of HIV-IIIB)) (UniProt P04578); test: flow cytometry, antibody at 10 µg/ml on gp120 fixed to CEM cells CD4+/CXCR4+
[2] = biological target: W338S gp120 fixed to CEM cells CD4+/CXCR4+ (HIV-1 (HXB2 clone of HIV-IIIB)) (UniProt P04578); test: as above
[3] = biological target: CXCR4 receptor on the cell surface (UniProt P61073); test: cell-based or functional assay
[4] = biological target: CD4 receptor on the cell surface (UniProt P01730); test: cell-based or functional assay

With AcM 17b (antibody) as the substance, how does the average fluorescence intensity [1] read?
The average fluorescence intensity was 70.5.

And the average fluorescence intensity [2]?
The average fluorescence intensity was 176.

For “gp160 envelope with 338 W/S in gp120, expressed on transfected HeLa-Tat cells (from UniProt P04578 33-856)”, which Percentage of fusion foci [3] is on record?
Its Percentage of fusion foci is 0%.

“112W/S gp120 expressed on the surface of transfected HeLa-Tat cells (gp160 envelope with 112 W/S) (from UniProt P04578 33-856)” was tested. Which Percentage of fusion foci [4] did it give?
The Percentage of fusion foci was 0%.

With AcM 4.8d (antibody) as the substance, how does the average fluorescence intensity [1] read?
The average fluorescence intensity was 76.8.

What about the average fluorescence intensity [2] of the same substance?
Its average fluorescence intensity is 209.

For “gp160 envelope with 112 W/F in gp120, expressed on transfected HeLa-Tat cells (from UniProt P04578 33-856)”, which Percentage of fusion foci [4] is on record?
The Percentage of fusion foci was 60%.
